Results from US20140127175A1 (ZEALAND PHARMA A S, published 2014).
Non-standard residues stand in square brackets, D forms with d.

B1: ZP2648 (peptide)
peptide: H-HSQGTFTSDYSKYLDRARAHDFVAWLKST-NH2
B2: ZP2637 (peptide)
peptide: H-HSQGTFTSDYSKYLDRARAEDFVAWLKST-NH2
B3: ZP2650 (peptide)
peptide: H-HSQGTFTSDYSKYLDRARADDFVAWLERA-NH2
B4: ZP2634 (peptide)
peptide: H-HSQGTFTSDYSKYLDRARADDFVAWLKSA-NH2
B5: ZP2635 (peptide)
peptide: H-HSQGTFTSDYSKYLDRARADDFVAWLKEA-NH2
B6: ZP2495 (peptide)
peptide: H-HSQGTFTSDYSKYLDRARADDFVAWLKST-NH2
B7: ZP2649 (peptide)
peptide: H-HSQGTFTSDYSKYLDRARADDFVEWLKST-NH2
B8: ZP2654 (peptide)
peptide: H-H[dS]QGTFTSDYSKYLDRARADDFVAWLKST-NH2
SMILES: CC(C)C[C@H](NC(=O)[C@H](Cc1c[nH]c2ccccc12)NC(=O)[C@H](C)NC(=O)[C@@H](NC(=O)[C@H](Cc1ccccc1)NC(=O)[C@H](CC(=O)O)NC(=O)[C@H](CC(=O)O)NC(=O)[C@H](C)NC(=O)[C@H](CCCNC(=N)N)NC(=O)[C@H](C)NC(=O)[C@H](CCCNC(=N)N)NC(=O)[C@H](CC(=O)O)NC(=O)[C@H](CC(C)C)NC(=O)[C@H](Cc1ccc(O)cc1)NC(=O)[C@H](CCCCN)NC(=O)[C@H](CO)NC(=O)[C@H](Cc1ccc(O)cc1)NC(=O)[C@H](CC(=O)O)NC(=O)[C@H](CO)NC(=O)[C@@H](NC(=O)[C@H](Cc1ccccc1)NC(=O)[C@@H](NC(=O)CNC(=O)[C@H](CCC(N)=O)NC(=O)[C@@H](CO)NC(=O)[C@@H](N)Cc1c[nH]cn1)[C@@H](C)O)[C@@H](C)O)C(C)C)C(=O)N[C@@H](CCCCN)C(=O)N[C@@H](CO)C(=O)N[C@H](C(N)=O)[C@@H](C)O

Molecular target: human glucagon-like peptide 1 receptor (human, UniProt P43220 24-463)
Sequence (P43220 24-463): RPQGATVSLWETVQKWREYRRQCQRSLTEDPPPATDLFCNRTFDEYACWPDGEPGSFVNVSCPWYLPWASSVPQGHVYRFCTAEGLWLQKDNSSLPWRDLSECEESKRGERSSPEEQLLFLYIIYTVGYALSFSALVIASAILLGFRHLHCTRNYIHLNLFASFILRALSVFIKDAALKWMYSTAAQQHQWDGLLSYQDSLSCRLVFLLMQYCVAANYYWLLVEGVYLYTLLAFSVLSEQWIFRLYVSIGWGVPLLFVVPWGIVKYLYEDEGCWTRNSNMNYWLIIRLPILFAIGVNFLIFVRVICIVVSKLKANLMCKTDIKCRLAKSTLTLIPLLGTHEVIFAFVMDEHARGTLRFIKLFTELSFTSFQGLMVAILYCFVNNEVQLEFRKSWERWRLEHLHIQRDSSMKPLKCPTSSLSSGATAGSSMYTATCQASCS
Assay: cell-based or functional assay

Binder | EC50 of cAMP formation, HEK293 cells expressing human GLP-1R
B1 | 0.1 nM
B2 | 0.1 nM
B3 | 0.8 nM
B4 | 0.2 nM
B5 | 0.2 nM
B6 | 0.23 nM
B7 | 0.1 nM
B8 | 0.8 nM

Molecular target: human glucagon receptor (human, UniProt P47871 26-477)
Assay: cell-based or functional assay

Binder | EC50 of cAMP formation, HEK293 cells expressing human Glucagon-R
B1 | 0.2 nM
B2 | 0.2 nM
B3 | 0.07 nM
B4 | 0.5 nM
B5 | 0.2 nM
B6 | 0.5 nM
B7 | 0.3 nM
B8 | 0.5 nM
